From PMC11098746 (2024)

biological target: Circumsporozoite protein (CSP) (Plasmodium falciparum (isolate 3D7), UniProt Q7K740); test: AVEXIS screen signal:noise (double-corrected)
Sequence (Q7K740 19-374): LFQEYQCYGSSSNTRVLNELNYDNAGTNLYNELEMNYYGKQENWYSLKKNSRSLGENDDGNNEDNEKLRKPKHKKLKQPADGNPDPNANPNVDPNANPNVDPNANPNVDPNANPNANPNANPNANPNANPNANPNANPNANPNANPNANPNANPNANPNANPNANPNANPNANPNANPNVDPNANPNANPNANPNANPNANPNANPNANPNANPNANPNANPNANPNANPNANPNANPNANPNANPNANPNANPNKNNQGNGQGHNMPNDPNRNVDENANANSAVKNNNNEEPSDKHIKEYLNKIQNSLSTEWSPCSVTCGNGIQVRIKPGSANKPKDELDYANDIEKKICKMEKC

Row | Binder | binding score
1 | ADP371 (protein, bait human Fc-tagged dimer) MRRAWILLTLGLVACVSAESRAELTSDKDMYLDNSSIEEASGVYPIDDDDYASASGSGADEDVESPELTTSRPLPKILLTSAAPKVETTTLNIQNKIPAQTKSPEETDKEKVHLSDSERKMDPAEEDTNVYTEKHSDSLFKRTE | 1.57
2 | ADP349 (protein, bait human Fc-tagged dimer) MAAAGPRRSVRGAVCLHLLLTLVIFSRAGEACKKVILNVPSKLEADKIIGRVNLEECFRSADLIRSSDPDFRVLNDGSVYTARAVALSDKKRSFTIWLSDKRKQTQKEVTVLLEHQKKVSKTRHTRETVLRRAKRRWAPIPCSMQENSLGPFPLFLQQVESDAAQNYTVFYSISGRGVDKEPLNLFYIERDTGNLFCTRPVDREEYDVFDLIAYASTADGYSADLPLPLPIRVEDENDNHPVFTEAIYNFEVLESSRPGTTVGVVCATDRDEPDTMHTRLKYSILQQTPRSPGLFSVHPSTGVITTVSHYLDREVVDKYSLIMKVQDMDGQFFGLIGTSTCIITVTDSNDNAPTFRQNAYEAFVEENAFNVEILRIPIEDKDLINTANWRVNFTILKGNENGHFKISTDKETNEGVLSVVKPLNYEENRQVNLEIGVNNEAPFARDIPRVTALNRALVTVHVRDLDEGPECTPAAQYVRIKENLAVGSKINGYKAYDPENRNGNGLRYKKLHDPKGWITIDEISGSIITSKILDREVETPKNELYNITVLAIDKDDRSCTGTLAVNIEDVNDNPPEILQEYVVICKPKMGYTDILAVDPDEPVHGAPFYFSLPNTSPEISRLWSLTKVNDTAARLSYQKNAGFQEYTIPITVKDRAGQAATKLLRVNLCECTHPTQCRATSRSTGVILG | 0.666
3 | ADP278 (protein, bait human Fc-tagged dimer) IQAKLIFLNFVRVPYFIDLKKPQDQGLNHTCNYYLQPEEDVTIGVWHTVPAVWWKNAQGKDQMWYEDALASSHPIILYLHGNAGTRGGDHRVELYKVLSSLGYHVVTFDYRGWGDSVGTPSERGMTYDALHVFDWIKARSGDNPVYIWGHSLGTGVATNLVRRLCERETPPDALILESPFTNIREEAKSHPFSVIYRYFPGFDWFFLDPITSSGIKFANDENVKHISCPLLILHAEDDPVVPFQLGRKLYSIAAPARSFRDFKVQFVPFHSDLGYRHKYIYKSPELPRILREFLGKSEPEHQH | 0.76
4 | ADP140 (protein, bait human Fc-tagged dimer) MELRVLLCWASLAAALEETLLNTKLETADLKWVTFPQVDGQWEELSGLDEEQHSVRTYEVCDVQRAPGQAHWLRTGWVPRRGAVHVYATLRFTMLECLSLPRAGRSCKETFTVFYYESDADTATALTPAWMENPYIKVDTVAAEHLTRKRPGAEATGKVNVKTLRLGPLSKAGFYLAFQDQGACMALLSLHLFYKKCAQLTVNLTRFPETVPRELVVPVAGSCVVDAVPAPGPSPSLYCREDGQWAEQPVTGCSCAPGFEAAEGNTKCRACAQGTFKPLSGEGSCQPCPANSHSNTIGSAVCQCRVGYFRARTDPRGAPCTTPPSAPRSVVSRLNGSSLHLEWSAPLESGGREDLTYALRCRECRPGGSCAPCGGDLTFDPGPRDLVEPWVVVRGLRPDFTYTFEVTALNGVSSLATGPVPFEPVNVTTDREVPPAVSDIRVTRSSPSSLSLAWAVPRAPSGAVLDYEVKYHEKGAEGPSSVRFLKTSENRAELRGLKRGASYLVQVRARSEAGYGPFGQEHHSQTQLDESEGWREQLAL | 1.91
5 | ADP360 (protein, bait human Fc-tagged dimer) MGAARGSPARPRRLPLLSVLLLPLLGGTQTAIVFIKQPSSQDALQGRRALLRCEVEAPGPVHVYWLLDGAPVQDTERRFAQGSSLSFAAVDRLQDSGTFQCVARDDVTGEEARSANASFNIKWIEAGPVVLKHPASEAEIQPQTQVTLRCHIDGHPRPTYQWFRDGTPLSDGQSNHTVSSKERNLTLRPAGPEHSGLYSCCAHSAFGQACSSQNFTLSIADESFARVVLAPQDVVVARYEEAMFHCQFSAQPPPSLQWLFEDETPITNRSRPPHLRRATVFANGSLLLTQVRPRNAGIYRCIGQGQRGPPIILEATLHLAEIEDMPLFEPRVFTAGSEERVTCLPPKGLPEPSVWWEHAGVRLPTHGRVYQKGHELVLANIAESDAGVYTCHAANLAGQRRQDVNITVATVPSWLKKPQDSQLEEGKPGYLDCLTQATPKPTVVWYRNQMLISEDSRFEVFKNGTLRINSVEVYDGTWYRCMSSTPAGSIEAQARVQVLEKLKFTPPPQPQQCMEFDKEATVPCSATGREKPTIKWERADGSSLPEWVTDNAGTLHFARVTRDDAGNYTCIASNGPQGQIRAHVQLTVAVFITFKVEPERTTVYQGHTALLQCEAQGDPKPLIQWKGKDRILDPTKLGPRMHIFQNGSLVIHDVAPEDSGRYTCIAGNSCNIKHTEAPLYVVDKPVPEESEGPGSPPP | 0.739
6 | ADP356 (protein, bait human Fc-tagged dimer) MAPLPGALGVAAAAALWLLLLLLPRTRADEHEHTYQDKEEVVLWMNTVGPYHNRQETYKYFSLPFCVGSKKSISHYHETLGEALQGVELEFSGLDIKFKDDVMPATYCEIDLDKEKRDAFVYAIKNHYWYQMYIDDLPIWGIVGEADENGEDYYLWTYKKLEIGFNGNRIVDVNLTSEGKVKLVPNTKIQMSYSVKWKKSDVKFEDRFDKYLDPS | 1
7 | ADP350 (protein, bait human Fc-tagged dimer) MAAAGRLPSSWALFSPLLAGLALLGVGPVPARALHNVTAELFGAEAWGTLAAFGDLNSDKQTDLFVLRERNDLIVFLADQNAPYFKPKVKVSFKNHSALITSVVPGDYDGDSQMDVLLTYLPKNYAKSELGAVIFWGQNQTLDPNNMTILNRTFQDEPLIMDFNGDLIPDIFGITNESNQPQILLGGNLSWHPALTTTSKMRIPHSHAFIDLTEDFTADLFLTTLNATTSTFQFEIWENLDGNFSVSTILEKPQNMMVVGQSAFADFDGDGHMDHLLPGCEDKNCQKSTIYLVRSGMKQWVPVLQDFSNKGTLWGFVPFVDEQQPTEIPIPITLHIGDYNMDGYPDALVILKNTSGSNQQAFLLENVPCNNASCEEARRMFKVYWELTDLNQIKDAMVATFFDIYEDGILDIVVLSKGYTKNDFAIHTLKNNFEADAYFVKVIVLSGLCSNDCPRKITPFGVNQPGPYIMYTTVDANGYLKNGSAGQLSQSAHLALQLPYNVLGLGRSANFLDHLYVGIPRPSGEKSIRKQEWTAIIPNSQLIVIPYPHNVPRSWSAKLYLTPS | 0.985
8 | ADP357 (protein, bait human Fc-tagged dimer) MGPPSAPPCRLHVPWKEVLLTASLLTFWNPPTTAKLTIESTPFNVAEGKEVLLLAHNLPQNRIGYSWYKGERVDGNSLIVGYVIGTQQATPGPAYSGRETIYPNASLLIQNVTQNDTGFYTLQVIKSDLVNEEATGQFHVYPELPKPSISSNNSNPVEDKDAVAFTCEPEVQNTTYLWWVNGQSLPVSPRLQLSNGNMTLTLLSVKRNDAGSYECEIQNPASANRSDPVTLNVLYGPDGPTISPSKANYRPGENLNLSCHAASNPPAQYSWFINGTFQQSTQELFIPNITVNNSGSYMCQAHNSATGLNRTTVTMITVSGSAP | 0.755
9 | ADP129 (protein, bait human Fc-tagged dimer) MFPFYSCWRTGLLLLLLAVAVRESWQTEEKTCDLVGEKGKESEKELALVKRLKPLFNKSFESTVGQGSDTYIYIFRVCREAGNHTSGAGLVQINKSNGKETVVGRLNETHIFNGSNWIMLIYKGGDEYDNHCGKEQRRAVVMISCNRHTLADNFNPVSEERGKVQDCFYLFEMDSSLACSPEISHLS | 1.25
10 | ADP119 (protein, bait human Fc-tagged dimer) MDVCVRLALWLLWGLLLHQGQSLSHSHSEKATGTSSGANSEESTAAEFCRIDKPLCHSEDEKLSFEAVRNIHKLMDDDANGDVDVEESDEFLREDLNYHDPTVKHSTFHGEDKLISVEDLWKAWKSSEVYNWTVDEVVQWLITYVELPQYEETFRKLQLSGHAMPRLAVTNTTMTGTVLKMTDRSHRQKLQLKALDTVLFGPPLLTRHNHLKD | 1.89
11 | ADP355 (protein, bait human Fc-tagged dimer) MALLLLHPAFQSCLLLTLLGLWRTTPEAHASSLGAPAISAASFLQDLIHRYGEGDSLTLQQLKALLNHLDVGVGRGNVTQHVQGHRNLSTCFSSGDLFTAHNFSEQSRIGSSELQEFCPTILQQLDSRACTSENQENEENEQTEEGRPSAVEVWGYG | 0.935
12 | ADP381 (protein, bait human Fc-tagged dimer) SQEKNKNANSSPVASTTPSASATTNPASATTLDQSKAWNRYRLPNTLKPDSYRVTLRPYLTPNDRGLYVFKGSSTVRFTCKEATDVIIIHSKKLNYTLSQGHRVVLRGVGGSQPPDIDKTELVEPTEYLVVHLKGSLVKDSQYEMDSEFEGELADDLAGFYRSEYMEGNVRKVVATTQMQAADARKSFPCFDEPAMKAEFNITLIHPKDLTALSNMLPKGPSTPLPEDPNWNVTEFHTTPKMSTYLLAFIVSEFDYVEKQASNGVLIRIWARPSAIAAGHGDYALNVTGPILNFFAGHYDTPYPLPKSDQIGLPDFNAGAMENWGLVTYRENSLLFDPLSSSSSNKERVVTVIAHELAHQWFGNLVTIEWWNDLWLNEGFASYVEYLGADYAEPTWNLKDLMVLNDVYRVMAVDALASSHPLSTPASEINTPAQISELFDAISYSKGASVLRMLSSFLSEDVFKQGLASYLHTFAYQNTIYLNLWDHLQEAVNNRSIQLPTTVRDIMNRWTLQMGFPVITVDTSTGTLSQEHFLLDPDSNVTRPSEFNYVWIVPITSIRDGRQQQDYWLIDVRAQNDLFSTSGNEWVLLNLNVTGYYRVNYDEENWRKIQTQLQRDHSAIPVINRAQIINDAFNLASAHKVPVTLALNNTLFLIEERQYMPWEAALSSLSYFKLMFDRSEVYGPMKNYLKKQVTPLFIHFRNNTNNWREIPENLMDQYSEVNAISTACSNGVPECEEMVSGLFKQWMENPNNNPIHPNLRSTVYCNAIAQGGEEEWDFAWEQFRNATLVNEADKLRAALACSKELWILNRYLSYTLNPDLIRKQDATSTIISITNNVIGQGLVWDFVQSNWKKLFNDYGGGSFSFSNLIQAVTRRFSTEYELQQLEQFKKDNEETGFGSGTRALEQALEKTKANIKWVKENKEVVLQWFTENSK | 0.803
13 | ADP266 (protein, bait human Fc-tagged dimer) EEFRPEMLQGKKVIVTGASKGIGREMAYHLAKMGAHVVVTARSKETLQKVVSHCLELGAASAHYIAGTMEDMTFAEQFVAQAGKLMGGLDMLILNHITNTSLNLFHDDIHHVRKSMEVNFLSYVVLTVAALPMLKQSNGSIVVVSSLAGKVAYPMVAAYSASKFALDGFFSSIRKEYSVSRVNVSITLCVLGLIDTETAMKAVSGIVHMQAAPKEECALEIIKGGALRQEEVYYDSSLWTTLLIRNPCRKILEFLYSTSYNMDRFINK | 0.642
